Experimental data published in patent publication US9969784B2, “Compositions and methods for modulation of immune function” (THE CHILDREN'S HOSPITAL OF PHILADELPHIA, priority 2013, dated 2018).

What was measured:
Nedd4 = test: ubiquitin charging assay, Nedd4; format: biochemical; details: carried out for 30 seconds
Description: FIG. 8. Multiple Nedd4-family members likely share this mechanism of auto-inhibition and relief by Ndfip1 and Ndfip2. Nedd4 and Itch were expressed, purified and tested in the ubiquitin charging assay in the presence or absence of Ndfip1 or Ndfip2 as shown. Neither Itch nor Nedd4 were charged with ubiquitin in the assay when Ndfip1 or Ndfip2 were omitted from the assay. These assays were carried out for 30 seconds.
(§1) There are 9 members of the Nedd4-family of E3 ubiquitin ligases. These ligases are unusual in that there is a high degree of sequence similarity. All family members are composed of a HECT domain (the catalytic subunit), 2-4 WW domains, and a single C2 domain. Auto-inhibition of family members has been described by others, and different mechanisms of auto-inhibition have been proposed. […] We have devised a new way to look at auto-inhibition, namely by using a ubiquitin charging assay which is the initial event in activating Nedd4-family E3 ubiquitin ligases. Ubiquitin charging occurs when an E2 ubiquitin conjugating enzyme transfers ubiquitin to the catalytic cysteine of the Nedd4-family E3 ligase. This event is absolutely required for catalytic activity of the E3 ligase. […] We have determined that Ndfip1 and Ndfip2 are not required for Itch to bind the E2, as association between E2 and Itch occur in the absence of Ndfip1 and Ndfip2. […]

Itch = biological target: T1, Itch (Homo sapiens, UniProt Q96J02); test: ubiquitin charging assay (cell free), Itch; format: biochemical; details: E1, E2, ubiquitin, ATP and Mg++, then EDTA, Itch added with the substance
T1 construct: made in house
Description: FIGS. 1A-1D. Ndfip1 and Ndfip2 promote ubiquitin charging of Itch. FIG. 1A: E1, E2, ubiquitin, ATP and Mg++ were incubated together to prepare the E2 for ubiquitin transfer. EDTA was added to prevent further transfer of ubiquitin from E1 to E2. This ensures that only a single ubiquitin will be transferred. Itch was then added to the reaction with or without Ndfip1 or Ndfip2. […] FIG. 1C: Schematic diagram of auto-inhibition by Itch and activation by Ndfip1. FIG. 1D: Ndfip peptide mimics therapeutically activate
as §1, with “ligase.” for “ligase. This event is absolutely required for catalytic activity of the E3 ligase.”

Sequence of Nedd4 (P46934 whole entry, species assumed): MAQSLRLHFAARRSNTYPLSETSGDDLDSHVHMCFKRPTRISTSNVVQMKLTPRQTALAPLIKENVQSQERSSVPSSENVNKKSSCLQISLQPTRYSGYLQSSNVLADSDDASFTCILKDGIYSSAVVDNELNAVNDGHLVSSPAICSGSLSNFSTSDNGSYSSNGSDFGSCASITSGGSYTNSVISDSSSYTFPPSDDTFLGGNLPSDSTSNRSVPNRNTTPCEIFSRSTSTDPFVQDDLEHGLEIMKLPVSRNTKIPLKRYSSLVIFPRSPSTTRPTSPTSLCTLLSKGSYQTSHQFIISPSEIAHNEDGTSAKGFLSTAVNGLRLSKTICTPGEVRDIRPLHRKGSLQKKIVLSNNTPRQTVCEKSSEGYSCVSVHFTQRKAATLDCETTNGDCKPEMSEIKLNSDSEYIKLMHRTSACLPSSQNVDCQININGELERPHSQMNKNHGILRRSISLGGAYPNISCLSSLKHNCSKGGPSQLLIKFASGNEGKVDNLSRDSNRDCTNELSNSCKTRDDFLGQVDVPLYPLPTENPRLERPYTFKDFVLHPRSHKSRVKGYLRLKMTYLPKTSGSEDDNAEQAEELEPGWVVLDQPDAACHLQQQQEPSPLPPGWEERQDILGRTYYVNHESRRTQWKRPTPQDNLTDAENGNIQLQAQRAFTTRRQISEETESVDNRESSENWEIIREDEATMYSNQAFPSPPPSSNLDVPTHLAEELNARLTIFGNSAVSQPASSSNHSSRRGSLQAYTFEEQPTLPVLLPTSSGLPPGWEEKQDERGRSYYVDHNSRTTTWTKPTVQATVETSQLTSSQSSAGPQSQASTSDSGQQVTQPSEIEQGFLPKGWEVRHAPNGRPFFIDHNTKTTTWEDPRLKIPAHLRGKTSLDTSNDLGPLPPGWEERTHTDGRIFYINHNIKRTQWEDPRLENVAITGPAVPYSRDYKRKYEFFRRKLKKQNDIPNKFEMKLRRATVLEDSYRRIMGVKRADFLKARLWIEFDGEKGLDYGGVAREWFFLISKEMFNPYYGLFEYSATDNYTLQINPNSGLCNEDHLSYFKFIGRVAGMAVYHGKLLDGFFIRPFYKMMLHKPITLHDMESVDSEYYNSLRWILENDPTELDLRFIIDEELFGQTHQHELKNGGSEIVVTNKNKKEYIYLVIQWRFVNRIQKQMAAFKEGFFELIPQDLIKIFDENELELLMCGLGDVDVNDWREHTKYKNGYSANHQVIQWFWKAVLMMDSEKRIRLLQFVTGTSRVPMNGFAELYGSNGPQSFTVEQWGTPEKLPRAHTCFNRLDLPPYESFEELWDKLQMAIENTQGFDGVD
T1 sequence (Q96J02 whole entry, species assumed): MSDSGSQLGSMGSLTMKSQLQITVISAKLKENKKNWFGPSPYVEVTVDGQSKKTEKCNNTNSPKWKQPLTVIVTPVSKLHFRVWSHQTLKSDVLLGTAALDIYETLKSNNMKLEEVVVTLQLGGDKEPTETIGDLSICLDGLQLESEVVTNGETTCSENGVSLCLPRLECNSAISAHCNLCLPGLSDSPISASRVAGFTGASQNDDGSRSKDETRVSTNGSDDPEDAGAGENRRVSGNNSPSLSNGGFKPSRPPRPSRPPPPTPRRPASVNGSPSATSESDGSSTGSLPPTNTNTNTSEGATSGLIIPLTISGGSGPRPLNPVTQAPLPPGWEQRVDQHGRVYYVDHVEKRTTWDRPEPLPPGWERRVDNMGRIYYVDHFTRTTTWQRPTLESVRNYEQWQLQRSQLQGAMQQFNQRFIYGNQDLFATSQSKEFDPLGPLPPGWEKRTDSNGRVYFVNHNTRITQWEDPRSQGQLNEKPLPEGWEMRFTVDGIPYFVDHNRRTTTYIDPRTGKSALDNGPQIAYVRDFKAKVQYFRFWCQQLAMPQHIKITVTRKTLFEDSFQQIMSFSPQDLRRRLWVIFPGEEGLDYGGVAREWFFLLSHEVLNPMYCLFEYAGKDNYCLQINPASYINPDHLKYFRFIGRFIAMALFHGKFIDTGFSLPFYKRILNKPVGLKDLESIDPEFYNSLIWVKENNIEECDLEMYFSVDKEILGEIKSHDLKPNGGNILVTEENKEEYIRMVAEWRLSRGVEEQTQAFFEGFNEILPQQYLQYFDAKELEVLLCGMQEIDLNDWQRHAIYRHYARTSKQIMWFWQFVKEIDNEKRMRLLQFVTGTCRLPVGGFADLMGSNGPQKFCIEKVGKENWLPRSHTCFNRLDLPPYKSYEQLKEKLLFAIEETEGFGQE

B1: Ndfip2: adaptor of the Ndfip family that relieves auto-inhibition of Nedd4-family E3 ligases (protein, UniProt Q9NV92 1-336, looked up)
NEDD4 family-interacting …: MARRRSQRVCASGPSMLNSARGAPELLRGTATNAEVSAAAAGATGSEELPPGDRGCRNGGGRGPAATTSSTGVAVGAEHGEDSLSRKPDPEPGRMDHHQPGTGRYQVLLNEEDNSESSAIEQPPTSNPAPQIVQAASSAPALETDSSPPPYSSITVEVPTTSDTEVYGEFYPVPPPYSVATSLPTYDEAEKAKAAAMAAAAAETSQRIQEEECPPRDDFSDADQLRVGNDGIFMLAFFMAFIFNWLGFCLSFCITNTIAGRYGAICGFGLSLIKWILIVRFSDYFTGYFNGQYWLWWIFLVLGLLLFFRGFVNYLKVRNMSESMAAAHRTRYFFLL
relief of Nedd4 auto-inhibition (Nedd4): auto-inhibition was relieved | ubiquitin charging of Itch (Itch): ubiquitin charging of Itch is observed
